Test results from article PMC6467514.

Assays:
[1] = substrate: Nc1ncnc2c([C@@H]3O[C@H](CO)[C@@H](O)[C@H]3O)snc12; experiment: stopped-flow fluorescence Michaelis-Menten kinetics; assay type: biochemical, Bos taurus
[2] = substrate: Nc1ncnc2c1ncn2[C@@H]1O[C@H](CO)[C@@H](O)[C@H]1O; experiment: stopped-flow absorbance Michaelis-Menten kinetics; assay type: biochemical, Bos taurus

B1: adenosine deaminase (ADA) (Bos taurus) (protein)
chain: AQTPAFNKPKVELHVHLDGAIKPETILYYGRKRGIALPADTPEELQNIIGMDKPLSLPEFLAKFDYYMPAIAGCREAVKRIAYEFVEMKAKDGVVYVEVRYSPHLLANSKVEPIPWNQAEGDLTPDEVVSLVNQGLQEGERDFGVKVRSILCCMRHQPSWSSEVVELCKKYREQTVVAIDLAGDETIEGSSLFPGHVKAYAEAVKSGVHRTVHAGEVGSANVVKEAVDTLKTERLGHGYHTLEDATLYNRLRQENMHFEVCPWSSYLTGAWKPDTEHPVVRFKNDQVNYSLNTDDPLIFKSTLDTDYQMTKNEMGFTEEEFKRLNINAAKSSFLPEDEKKELLDLLYKAYGMPSPASAEQCL
Question: Which results are given for B1?
Answer: Km [1]: 18.8 ± 3.2 µM; Km [2]: 25.1 ± 3.2 µM
